Experimental data from paper doi:10.1101/2020.07.01.182642v1.

Tested on: Nc1ncnc2c1ncn2[C@@H]1O[C@H](COP(=O)(O)OP(=O)(O)OP(=O)(O)O)[C@@H](O)[C@H]1O
Assay: Omnia kinase assay
Assay type: biochemical, Homo sapiens
Conditions: Sox peptide co-substrate, pH 7.5, 25 mM MgCl2, 25 °C

Row | Substance | Km [µM]
1 | CLK3 (R134-T484) (Homo sapiens) | 58.9 ± 20.3
2 | CLK3 (R134-T484) (Homo sapiens; A319V) | 8.6 ± 4.2
